These results are taken from PMC10204293, “S100A6 inhibits MDM2 to suppress breast cancer growth and enhance sensitivity to chemotherapy” (Breast Cancer Research : BCR, 2023).

In this assay the target is T1, HA-MDM2 full-length (1–491) (human, UniProt Q00987 1-491).
T1 construct: Cloned into a T7 promotor-HA expression vector; also called HA-tagged full-length MDM2; source: E. coli BL21 (DE3), purified (His-tag purification kit)
The experiment in a line: pull-down; about 100 µg of a mixture of GST, GST-S100A6 or its fragments with HA-MDM2 or its fragments on 100 µL glutathione agarose, overnight at 4 °C; blot with anti-HA. To be noted: both partners purified.

B1: GST-S100A6 EF-hand II (48–90) (domain or fragment)
chain: not shown
notes: S100A6, human, EF-hand II, residues 48–90; also called C-terminal EF-hand of S100A6; source: E. coli BL21 (DE3), purified (GST-tag purification kit)
For B1, the binding result is reported as “binds”.

B2: GST-S100A6 EF-hand I (1–47) (domain or fragment)
chain: not shown
notes: S100A6, human, EF-hand I, residues 1–47; also called N-terminal EF-hand of S100A6; source: E. coli BL21 (DE3), purified (GST-tag purification kit)
Take B2: the binding result is “binds”.
